Legend:
[1] = biological target: T1, PAR-1 N-terminal tail peptide (TR33-62) (artificial)
T1 sequence (peptide): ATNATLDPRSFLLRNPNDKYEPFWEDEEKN

[2] = biological target: T1, PAR-1 N-terminal tail peptide (TR33-62) (artificial); remark: listed apart in the source
[3] = biological target: endothelial protein C receptor (EPCR) on cells (Homo sapiens (Human)) (UniProt Q9UNN8)
[4] = biological target: endothelial protein C receptor (EPCR), as in the binding assays (Homo sapiens (Human)) (UniProt Q9UNN8); assay: apparent Kd; binding to immobilized soluble EPCR and to K293 cells transfected with wtEPCR (format of the value not told)

In the case of RR229/230AA-APC (enzyme), the PAR-1 peptide (TR33-62) cleavage (% rwt-APC), catalytic efficiency by HPLC [1] is reported as 116 % rwt-APC.
With “recombinant wild-type activated protein C (enzyme)” the cleavage of the TR33-62 peptide at Arg41, HPLC (fold lower kcat/Km than thrombin) [2] was 25000.
In the case of S360A-APC (enzyme), the PAR-1 peptide (TR33-62) cleavage (% rwt-APC), catalytic efficiency by HPLC [1] is reported as under 3 % rwt-APC.
Substance “PTGla-APC (APC with prothrombin residues 1-46) (from UniProt P00734) (enzyme)” has a concentration for half-maximal inhibition of staurosporine-induced endothelial apoptosis (fold higher concentration) [3] of 24 and a Kd [4] of over 300 nM.

Reference: US9192657B2
